From article PMC13125535, “Reprogramming of bacterial virulence by lysine acetylation” (Nature Communications, 2026)

Target: the molecule itself
Experiment: SEC; analytical SEC on a calibrated Superdex 200 10/300 GL column; 25 mM Tris-HCl pH 7.5, 150 mM NaCl, 2 mM β-mercaptoethanol; 1.0–2.0 mg/mL protein, 100 µL applied; tetramer to monomers

B1: SnCE1 C256A AcK209 (domain or fragment)
chain: SLTSKAICRYSLSSVESIQPKTQVKAIEPKGEKDRFLIDERNWLNNQHLGLYSLFLQEKYGPEVFFPFGGWTYVFPGLTDRFFKEDSYHILDVRAKRIKSFLDYKSITYPLFIGGNHWGLLFIDREKRTVEYYDSKINYGNYEEGLQGIKDVAAKFTKYDPGEKPYTYLEKIKKKLQPDGYQAGPWALYFLEHRLENPEVDFNQLDLNEAQNMIAKYRFAVRDKLLELQKNGNTLYC
modifications: acetyl-lysine at 209
notes: SnCE1, Simkania negevensis, UniProt F8L4W9
stoichiometry N: 4

B2: SnCE1_(104-310) C256A (non-acetylated) (domain or fragment)
chain: GEKDRFLIDERNWLNNQHLGLYSLFLQEKYGPEVFFPFGGWTYVFPGLTDRFFKEDSYHILDVRAKRIKSFLDYKSITYPLFIGGNHWGLLFIDREKRTVEYYDSKINYGNYEEGLQGIKDVAAKFTKYDPGEKPYTYLEKIKKKLQPDGYQAGPWALYFLEHRLENPEVDFNQLDLNEAQNMIAKYRFAVRDKLLELQKNGNTLYC
notes: SnCE1, Simkania negevensis, UniProt F8L4W9, residues 104-310; Not acetylated; no proteolytic processing seen for this truncated protein; not shown: GST, N-terminal, cleaved
stoichiometry N: 4
